Substrate in data set [1]: Nc1nc2c([nH]c(=O)n2[C@@H]2O[C@H](CO[P@@](=O)(O)O[P@@](=O)(O)OP(=O)(O)O)[C@@H](O)[C@H]2O)c(=O)[nH]1
As to the kind of experiment: continuous fluorescence Pi-sensor (PBP-MDCC) assay. The data set is classed as biochemical, Deinococcus radiodurans. Particulars: pH 7.6, 37 °C, 10 mM Tris-HCl, 1 mM MgCl2, no coupling phosphatase. An excerpt:
(§1) continuous fluorescence Pi-sensor (PBP-MDCC) assay on DR_1025

Substrate in data set [2]: Nc1nc2c([nH]c(=O)n2[C@H]2C[C@H](O)[C@@H](COP(=O)(O)OP(=O)(O)OP(=O)(O)O)O2)c(=O)[nH]1
Put plainly: continuous fluorescence Pi-sensor (PBP-MDCC) assay. The data set is classed as biochemical, Deinococcus radiodurans. The note with it: pH 7.6, 37 °C, 10 mM Tris-HCl, 1 mM MgCl2, no coupling phosphatase.
Excerpt: as §1

Substrate in data set [3]: Nc1nc2c([nH]c(=O)n2[C@H]2C[C@H](O)[C@@H](COP(=O)(O)OP(=O)(O)OP(=O)(O)O)O2)c(=O)[nH]1
Put plainly: continuous fluorescence Pi-sensor (PBP-MDCC) assay. Type of data set: biochemical, Methanosarcina mazei. The note with it: pH 7.6, 37 °C, 10 mM Tris-HCl, 1 mM MgCl2, PPase coupling. An excerpt: (§2) continuous fluorescence Pi-sensor (PBP-MDCC) assay on MM_0920

Substrate in data set [4]: Nc1ncnc2c1[nH]c(=O)n2[C@H]1C[C@H](O)[C@@H](COP(=O)(O)OP(=O)(O)OP(=O)(O)O)O1
Put plainly: continuous fluorescence Pi-sensor (PBP-MDCC) assay. Type of data set: biochemical, Methanosarcina mazei. The note with it: pH 7.6, 37 °C, 10 mM Tris-HCl, 1 mM MgCl2, PPase coupling.
Excerpt: as §2

Substrate in data set [5]: Nc1nc2c([nH]c(=O)n2[C@@H]2O[C@H](CO[P@@](=O)(O)O[P@@](=O)(O)OP(=O)(O)O)[C@@H](O)[C@H]2O)c(=O)[nH]1
As to the kind of experiment: continuous fluorescence Pi-sensor (PBP-MDCC) assay. The data set is classed as biochemical, Escherichia coli. The note with it: pH 7.6, 37 °C, 10 mM Tris-HCl, 1 mM MgCl2, PPase coupling. An excerpt:
(§3) continuous fluorescence Pi-sensor (PBP-MDCC) assay on MutT

Substrate in data set [6]: Nc1nc2c([nH]c(=O)n2[C@H]2C[C@H](O)[C@@H](COP(=O)(O)OP(=O)(O)OP(=O)(O)O)O2)c(=O)[nH]1
Put plainly: continuous fluorescence Pi-sensor (PBP-MDCC) assay. The data set is classed as biochemical, Escherichia coli. Particulars: pH 7.6, 37 °C, 10 mM Tris-HCl, 1 mM MgCl2, PPase coupling, alpha-beta cleavage.
Excerpt: as §3

Substrate in data set [7]: Nc1nc2c(ncn2[C@@H]2O[C@H](COP(=O)(O)OP(=O)(O)O[C@H]3O[C@H](CO)[C@@H](O)[C@H](O)[C@@H]3O)[C@@H](O)[C@H]2O)c(=O)[nH]1
As to the kind of experiment: discontinuous Fiske-SubbaRow (malachite green phosphate) assay. Type of data set: biochemical, Escherichia coli. Particulars: pH 8.5, 37 °C, 1 mM MgCl2, APase coupling. From the text: discontinuous Fiske-SubbaRow (malachite green phosphate) assay on NudD

Km, kcat and kcat/Km data for four proteins are collected here from paper PMC3744803, “A continuous fluorescence assay for the characterization of Nudix hydrolases” (Analytical Biochemistry, 2013).

One may read the Km as the concentration of substrate that gives half-maximal velocity. For orientation: kcat means the maximal rate divided by the concentration of active sites. What is called kcat/Km is the turnover number divided by the Michaelis constant.

B1: DR_1025 (Deinococcus radiodurans R1 = ATCC 13939 = DSM 20539) (protein)
chain: MEHDERTHVPVELRAAGVVLLNERGDILLVQEKGIPGHPEKAGLWHIPSGAVEDGENPQDAAVREACEETGLRVRPVKFLGAYLGRFPDGVLILRHVWLAEPEPGQTLAPAFTDEIAEASFVSREDFAQLYAAGQIRMYQTKLFYADALREKGFPALPV
As to B1, in data set [1], the Michaelis constant (Km) is 22 ± 5 µM and the kcat came out at 0.13 ± 0.01 s⁻¹. For the same protein, in data set [2], the Km amounted to 26 ± 1 µM, the kcat was determined as 0.18 ± 0.01 s⁻¹ and the kcat/Km came out at 4400 ± 100 M⁻¹ s⁻¹.

B2: MM_0920 (Methanosarcina mazei Go1) (protein)
chain: MNLEKPYIISVYALIRNEKGEFLLLRRSENSRTNAGKWDLPGGKVNPDESLKEGVAREVWEETGITMVPGDIAGQVNFELTEKKVIAIVFDGGYVVADVKLSYEHIEYSWVSLEKILGMETLPAYFRDFFERFDRENKKPSKLFI
Regarding B2, in data set [3], the Km stood at 13 ± 3 µM and the kcat entry was “(1.9 ± 0.2) × 10^−3 s^−1”. In data set [4], the Km turned out to be 12 ± 3 µM, the kcat was 0.00096 ± 8e-05 s⁻¹ and the kcat/Km was determined as 78 ± 12 M⁻¹ s⁻¹.

B3: MutT (Escherichia coli K-12) (protein)
chain: MKKLQIAVGIIRNENNEIFITRRAADAHMANKLEFPGGKIEMGETPEQAVVRELQEEVGITPQHFSLFEKLEYEFPDRHITLWFWLVERWEGEPWGKEGQPGEWMSLVGLNADDFPPANEPVIAKLKRL
On to B3, for which, in data set [5], the Km worked out at 0.9 ± 0.2 µM and the kcat was found to be 11.2 ± 0.9 s⁻¹. Moreover, the Km in data set [6] amounted to 0.28 ± 0.03 µM.

B4: NudD (Escherichia coli K-12) (protein)
chain: MFLRQEDFATVVRSTPLVSLDFIVENSRGEFLLGKRTNRPAQGYWFVPGGRVQKDETLEAAFERLTMAELGLRLPITAGQFYGVWQHFYDDNFSGTDFTTHYVVLGFRFRVSEEELLLPDEQHDDYRWLTSDALLASDNVHANSRAYFLAEKRTGVPGL
Take B4: the Km in data set [7] worked out at 220 ± 60 µM.
